Assay [1] has as its target T1, BSA-coupled (GA)15 DPR protein peptide (bovine, conjugated via a bifunctional linker (SMCC) to bovine serum albumin).
T1 construct: also called BSA-(GA)15
The assay can be described thus: indirect ELISA, BSA-coupled peptide coated, antibody titrated [also D00013 FIG. 3D]. On the procedure: (§1) In brief, dipeptide repeat proteins were synthesized and purified by Schafer-N(Copenhagen, Denmark): (GA)₁₅: H-CHHHHHH(GA)₁₅-OH; (GP)₁₅: H-C(GP)₁₅-OH; (GR)₁₅: H-C(GR)₁₅-OH; (PA)₁₅: H-C(PA)₁₅-OH; (PR)₁₅: H—C(PR)₁₅-OH. DPR protein peptides were then conjugated via a bifunctional linker (SMCC) to bovine serum albumin (BSA). 96-well microplates (Corning Incorporated, Corning, USA) were coated with BSA-coupled or -uncoupled dipeptide repeat protein peptides at a concentration of either 5 μg/ml or 20 μg/ml in coating buffer (15 mM Na₂CO₃, 35 mM NaHCO₃, pH 9.42). Non-specific binding sites were blocked for 1 h at room temperature with PBS/0.1% Tween®-20 containing 2% BSA (Sigma-Aldrich, Buchs, Switzerland). Primary antibodies were diluted to the indicated concentrations and incubated 1 h at room temperature, followed by incubation with a donkey anti-human IgG Fcγ-specific antibody conjugated with HRP (Jackson ImmunoResearch Laboratories, Inc., West Grove, USA). Binding was determined by measurement of HRP activity in a standard colorimetric assay. EC₅₀ values were estimated by non-linear regression using GraphPad Prism software (San Diego, USA).
(In general: In an ELISA, binding on a coated surface is turned into a signal by an enzyme label.)
Target sequence in this assay (P02769 25-607 limits assumed): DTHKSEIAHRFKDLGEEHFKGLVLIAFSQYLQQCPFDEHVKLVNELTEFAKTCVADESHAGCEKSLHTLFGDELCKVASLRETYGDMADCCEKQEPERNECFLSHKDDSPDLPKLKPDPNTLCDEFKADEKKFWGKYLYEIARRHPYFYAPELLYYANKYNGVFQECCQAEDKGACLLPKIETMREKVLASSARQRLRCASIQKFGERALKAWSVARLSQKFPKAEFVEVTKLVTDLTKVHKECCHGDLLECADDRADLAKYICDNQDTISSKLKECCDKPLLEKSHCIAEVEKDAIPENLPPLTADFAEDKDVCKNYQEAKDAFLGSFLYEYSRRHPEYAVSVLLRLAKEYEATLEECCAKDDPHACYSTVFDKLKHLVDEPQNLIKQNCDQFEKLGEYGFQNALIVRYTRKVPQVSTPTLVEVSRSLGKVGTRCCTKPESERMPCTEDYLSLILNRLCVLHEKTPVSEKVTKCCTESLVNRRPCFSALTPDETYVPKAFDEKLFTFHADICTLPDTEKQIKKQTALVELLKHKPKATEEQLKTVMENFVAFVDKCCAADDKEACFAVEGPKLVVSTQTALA

Assay [2] has as its target T2, (GA)15: H-CHHHHHH(GA)15-OH.
T2 construct: synthetic, not coupled to BSA; also called poly-GA DPR protein peptide
T2 peptide: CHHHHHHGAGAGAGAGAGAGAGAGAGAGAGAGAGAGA
The assay can be described thus: indirect ELISA, uncoupled peptide coated, antibody titrated [also D00013 FIG. 3D]. On the procedure:
as §1

Assay [3] concerns the target T2, (GA)15: H-CHHHHHH(GA)15-OH. The assay can be described thus: indirect ELISA, coated peptide.
Assay [4] has as its target T1, BSA-coupled (GA)15 DPR protein peptide. The assay can be described thus: indirect ELISA, BSA-coupled peptide coated, antibody titrated [also D00013 FIG. 3E]. On the procedure: as §1
Target sequence in this assay (P02769 25-607 limits assumed): as the sequence (P02769 25-607 limits assumed) above
Assay [5] has the same target. The assay can be described thus: indirect ELISA, BSA-coupled peptide coated, antibody titrated [also D00012 FIG. 3C]. The method, then: as §1
Target sequence in this assay (P02769 25-607 limits assumed, chain 2 of 2, one chain of several): as the sequence (P02769 25-607 limits assumed) above
In assay [6] the target is T3, BSA-coupled (PA)15 DPR protein peptide (bovine, UniProt P02769 25-607, conjugated via a bifunctional linker (SMCC) to bovine serum albumin).
T3 construct: also called BSA-(PA)15
T3 sequence (peptide, as listed by the source limits assumed, chain 1 of 2): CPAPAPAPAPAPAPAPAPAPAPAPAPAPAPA
T3 sequence (P02769 25-607 limits assumed, chain 2 of 2): as the sequence (P02769 25-607 limits assumed) above
The assay can be described thus: indirect ELISA, BSA-coupled peptide coated, antibody titrated [also D00015 FIG. 3K]. The method, then:
as §1

The target of assay [7] is T4, BSA-coupled (GP)15 DPR protein peptide (bovine, conjugated via a bifunctional linker (SMCC) to bovine serum albumin).
T4 construct: also called BSA-(GP)15
T4 sequence (peptide, as listed by the source limits assumed, chain 1 of 2): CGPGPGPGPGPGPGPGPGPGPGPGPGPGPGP
T4 sequence (P02769 25-607 limits assumed, chain 2 of 2): as the sequence (P02769 25-607 limits assumed) above
The assay can be described thus: indirect ELISA, BSA-coupled peptide coated, antibody titrated [also D00014 FIG. 3H]. On the procedure:
as §1

Assay [8] concerns the target T2, (GA)15: H-CHHHHHH(GA)15-OH. The assay can be described thus: indirect ELISA, uncoupled peptide coated, antibody titrated [also D00010 FIG. 2H]. The method, then:
as §1, with “(PR)₁₅: H—C(PR)₁₅-OH. 96-well microplates” for “(PR)₁₅: H—C(PR)₁₅-OH. DPR protein peptides were then conjugated via a bifunctional linker (SMCC) to bovine serum albumin (BSA). 96-well microplates”, “coated with dipeptide repeat” for “coated with BSA-coupled or -uncoupled dipeptide repeat”, “and incubated for 1 h” for “and incubated 1 h”, “Diego, USA). The binding specificity and EC₅₀ of human-derived antibodies for C9orf72 dipeptide repeat protein peptides (GA)₁₅, (GP)₁₅, (GR)₁₅, (PA)₁₅ and (PR)₁₅ were determined by indirect ELISA.” for “Diego, USA).”

Some results are limits rather than exact numbers.

B1: NI-308.28G1 (antibody, V domains shown)
VH: QVQLQESGPRLVKPSETLSLTCTVAGGSVNSYYWTWIQQSPGKGLEWLGRIYIAGRTNYNPSLTSRIALSVDTSRNQLSLKLTSVTAADTAIYYCARWGAESGDYYYGVDVWGPGTLVTVSS
VL: EIVMTQSPLSLPVTPGEPASISCKSSEGLLHSNGYTYLDWYLQKPGQAPQLLIFLASNRAAGVPDRFSGSGSGTDFTLKISRVEAEDVGVYYCMQAIQSPWTFGPGTKVEIK
notes: Recombinant complete human IgG1, kappa
As usually defined, the EC50 is the concentration at which the effect is half-maximal. For B1, the EC50 in assay [1] was 0.66 nM; in assay [2], 2 nM.

B2: NI-308.24E11 (antibody, V domains shown)
VH: QVQLQESGPGLVKPSETLSLTCTVSTTSLRSYFWSWIRQPPGKGLEWIGYVYYSGSTIYNPSLKNRVTISIDTSKNQFSLNLRSVTAADTAMYFCARGVPAETDARDFPPYYFDHWGQGTLVTVSS
VL: CDIQLTQSPSSLSASVGNRITFTCQASQDIRYYLNWYQQKPGKAPKLLIYDVSNLDTGVPPRFSGSGSGTNFTFTISSLQPEDIAVYYCQQYEGLPVTFGGGTKVEIK
notes: as for B1
B2: in assay [3], the binding result is “no binding”.

B3: NI-308.45C2 (antibody, V domains shown)
VH: QLQLQESGPGLVKPSQILSLTCAISGDSVFSNSAAWNWIRQSPSRGLEWLGRTYYRSKWDNDYAPSVKSRISINPDTSKNQFSLQLNSVTPEDTAVYYCAREVAYCGGDCYSVSFDYWGQGTLVTVSS
VL: not shown
notes: as for B1
Take B3: the response in assay [4] was half-maximal at 15.2 nM (EC50).

B4: NI-308.15O7 (antibody, V domains shown)
VH: QVQLVESGGGVVQPGRSLRLSCAASGFTFSNHAMHWVRQAPGKGLEWVAVISYDGENTYYADSIEGRFTISRDNFKNTLFLQMYSLTADDTAMYFCARGGRRGHFTSYYLDYWGQGTLVTVSS
VL: CDIQMTQSPSSLSASVGDRVTITCRASQNIDKYLNWYQQIPGKAPKLLIYAASSLHSGVPSRFSGSGSGTDFSLTISSLQPEDFAIYYCQQSYSSFRTFGQGTKLEIK
In assay [5], B4 displayed a concentration for a half-maximal effect (EC50) of 0.41 nM. This counts as sub-nanomolar.

B5: NI-308.4M1 (antibody, V domains shown)
VH: EVQLVETGGGVVQPGGSLRLSCEASGFTIGTYAMHWVRQFPGKGLDWVAVISFDGTTEYYTDAVKGRFTISRDNAKNTLYLQMNYLRGDDTAIYFCARDFTSSGETGSWTQVPDLWGQGTLVTVSS
VL: CEIVMTQSPATLSLSPGERATLSCRASQSVTKYLAWYQQKPGQAPRLLIYDVSYRAAGTPARFSGSGSGTDFTLTISSLEPEDFAVYYCHQRSSWPPVTFGGGTKVEIK
notes: as for B1
In assay [6], B5 had an EC50 of 0.14 nM.

B6: NI-308.46E9 (antibody, V domains shown)
VH: QVQLQESGPGLVKPSETLSLTCTVSGASISGSTYYWGWIRQPPGKGLEYIGRIYYSGSTYYNPSLKSRATISVDTSKNQLSLTLSSVTAADTAVYYCVRPFYAGSGNSPFDYWGQGTLVTVSS
VL: CEIVLTQSPATVSVSPGERATLSCRASQSVSTNLAWYQQKPGQPPRLLIYGASTRATGIPARFSGSGSGAEFTLTISSLQSEDFVVYYCQQYNNWPPAFGGGTKVEIK
notes: as for B1
Consider B6, for which the results for the EC50 in assay [7] and in assay [8] were 12.1 nM and greater than 200 nM, respectively.

Values taken from US20200010567A1 (NEURIMMUNE, published 2020).
